Results taken from publication PMC3404119.

Key:
[1] = target: Her1 (zebrafish); assay: MITOMI (mechanically induced trapping of molecular interactions); GFP-tagged Her protein from wheat germ extract immobilised on the microfluidic chip surface with anti-GFP antibody and washed with PBS; mCherry-tagged protein expressed on chip in wheat germ extract with 250 nM Cy5-labelled DNA oligomer; 3 h at room temperature; slope of free against bound mCherry signal as relative affinity
[2] = test system: Her1-GFP (zebrafish); assay: MITOMI; details: PPARγ-mCherry present; MITOMI in wheat germ TnT SP6 expression extract, 3 h at room temperature; PBS wash of immobilized protein; DNA spotted with 1% BSA; salt and pH not stated
[3] = test system: Her7 (coupled to chip, Fig 2D);Hes6-mCherry (zebrafish;zebrafish); assay: MITOMI; details: MITOMI in wheat germ TnT SP6 expression extract, 3 h at room temperature; PBS wash of immobilized protein; DNA spotted with 1% BSA; salt and pH not stated

Row | fold lower relative affinity than the Her1 homodimer (Her1-mCherry on Her1-GFP) [1] [fold] | Substance | binding signal (relative to seq 2) [2] | binding signal (relative to seq 2) [3]
1 | 3 | MyoD (myogenic differentiation 1) (from UniProt Q90477 1-275) (natural protein) |  | 
2 | 3 | Her7 (natural protein) |  | 
3 |  | seq 46 (control) | 0.0105 | 0.0131
4 |  | seq 47 (control) | 0.0105 | 0.0137
